Results from patent publication US12365732 (23ANDME, dated 2025).

T1: mo-CD96 (soluble, Table 5) (mouse, UniProt Q3U0X8 22-536, limits assumed)
T1 sequence (looked up): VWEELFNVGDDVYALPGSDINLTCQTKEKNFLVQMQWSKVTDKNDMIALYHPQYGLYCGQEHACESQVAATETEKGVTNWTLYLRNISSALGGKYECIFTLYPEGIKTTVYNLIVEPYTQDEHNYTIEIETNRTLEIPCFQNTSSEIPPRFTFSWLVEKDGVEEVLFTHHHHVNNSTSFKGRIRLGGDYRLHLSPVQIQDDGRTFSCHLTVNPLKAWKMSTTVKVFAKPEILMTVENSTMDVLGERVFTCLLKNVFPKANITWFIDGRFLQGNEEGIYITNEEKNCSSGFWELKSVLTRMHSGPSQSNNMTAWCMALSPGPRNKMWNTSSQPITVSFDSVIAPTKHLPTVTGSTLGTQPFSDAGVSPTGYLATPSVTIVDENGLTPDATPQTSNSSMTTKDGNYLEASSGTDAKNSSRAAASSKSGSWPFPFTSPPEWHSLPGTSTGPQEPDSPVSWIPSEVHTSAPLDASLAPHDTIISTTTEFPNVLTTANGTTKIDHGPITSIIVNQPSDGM

T2: hu-CD96 (soluble, isoform 2 extracellular domain) (human, UniProt P40200 22-516, biotinylated in Octet and blocking ELISA)
T2 construct: the assays name only hu-CD96; also called hCD96; biotinylated hu-CD96
T2 sequence: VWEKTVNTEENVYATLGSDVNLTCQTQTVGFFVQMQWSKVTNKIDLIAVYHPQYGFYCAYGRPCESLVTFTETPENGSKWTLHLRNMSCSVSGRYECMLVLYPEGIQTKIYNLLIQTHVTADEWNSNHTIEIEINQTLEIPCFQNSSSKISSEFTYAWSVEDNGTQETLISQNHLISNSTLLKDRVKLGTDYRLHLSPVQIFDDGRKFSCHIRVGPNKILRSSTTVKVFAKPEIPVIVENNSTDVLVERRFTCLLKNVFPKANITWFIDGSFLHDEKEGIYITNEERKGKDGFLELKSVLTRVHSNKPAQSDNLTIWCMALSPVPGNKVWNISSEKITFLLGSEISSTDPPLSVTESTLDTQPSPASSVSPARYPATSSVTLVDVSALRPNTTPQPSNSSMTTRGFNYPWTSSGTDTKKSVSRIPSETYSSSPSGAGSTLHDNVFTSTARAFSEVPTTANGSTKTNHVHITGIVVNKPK

T3: cy-CD96 (soluble, extracellular domain) (cynomolgus monkey, UniProt P40200 22-516 (human entry), biotinylated in Octet and blocking ELISA)
T3 construct: the assays name only cy-CD96; also called biotinylated cy-CD96
T3 chain: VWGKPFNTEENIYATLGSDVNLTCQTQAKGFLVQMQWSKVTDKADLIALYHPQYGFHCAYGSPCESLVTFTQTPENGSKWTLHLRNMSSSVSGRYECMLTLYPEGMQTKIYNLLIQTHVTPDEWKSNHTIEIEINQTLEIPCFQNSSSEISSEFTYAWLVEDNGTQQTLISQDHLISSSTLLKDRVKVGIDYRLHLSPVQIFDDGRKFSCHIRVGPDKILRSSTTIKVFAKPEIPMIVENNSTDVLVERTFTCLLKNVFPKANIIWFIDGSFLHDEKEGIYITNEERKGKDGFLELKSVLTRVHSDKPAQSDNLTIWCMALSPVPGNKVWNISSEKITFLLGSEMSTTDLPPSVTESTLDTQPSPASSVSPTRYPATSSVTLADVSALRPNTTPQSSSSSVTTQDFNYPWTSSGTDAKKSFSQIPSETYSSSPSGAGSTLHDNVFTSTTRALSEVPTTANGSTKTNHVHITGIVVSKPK


How the values were obtained:
huCD96D1-Fc = huCD96D1-Fc (human); experiment: Octet, antibody on anti-Fc sensors
Chain of huCD96D1-Fc (human) (chain, as listed by the source limits assumed): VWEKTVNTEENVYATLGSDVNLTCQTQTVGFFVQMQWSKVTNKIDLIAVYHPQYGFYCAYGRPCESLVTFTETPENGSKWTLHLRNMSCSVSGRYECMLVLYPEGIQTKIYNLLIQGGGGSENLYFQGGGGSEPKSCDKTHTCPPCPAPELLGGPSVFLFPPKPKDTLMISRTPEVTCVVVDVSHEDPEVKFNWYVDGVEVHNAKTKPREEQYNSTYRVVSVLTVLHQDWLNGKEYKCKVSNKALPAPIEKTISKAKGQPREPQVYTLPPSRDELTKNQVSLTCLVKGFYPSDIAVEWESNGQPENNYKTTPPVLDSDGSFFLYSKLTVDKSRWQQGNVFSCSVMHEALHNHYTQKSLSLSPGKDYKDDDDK
Protocol: Domain Binding Site Mapping mAb1.v7 and h10G1 were determined to bind the D1 domain of CD96. Epitope mapping experiments were performed on an OctetRed96 by capturing the antibodies on anti-Fc Octet sensors (ForteBio) and testing their binding to recombinant huCD96D1-Fc and huCD96D1D3.

[1] = target: T1, mo-CD96 (soluble, Table 5); experiment: SPR 25C, IgG on Protein A, CD96 analyte
Protocol: (§1) SPR measurement with a BIACORE™ 8K instrument was performed to determine the monovalent binding affinity of mAb1.v7 and h10G1 IgG to hu-CD96, cy-CD96, and mo-CD96. Briefly, antibodies were diluted at 0.5 µg/mL in HBS-P buffer (0.01 M HEPES pH 7.4, 0.15 M NaCl, 0.005% Surfactant P20) and applied to the Protein A chip at 30 µL/min flow rate for 60 s in flow cell 2 (FC2). Then 3-fold serial dilutions of hu-CD96, cy-CD96, or mo-CD96 in HBS-P buffer (0.01 M HEPES pH 7.4, 0.15 M NaCl, 0.005% surfactant P20) from (0.4 nM) to high (100 nM) were injected (flow rate: 30 µL/min) at 25° C. to both flow cell 1 (FC1) and flow cell 2 (FC2). The sensorgram was recorded and subject to reference and buffer subtraction before evaluating by BIACORE® 8K Evaluation Software (version 1.1.1.7442). Association rates ($kon$) and dissociation rates ($koff$) were calculated using a simple one-to-one Langmuir binding model.

[2] = target: T2, hu-CD96 (soluble, isoform 2 …); experiment: SPR 25C, IgG on Protein A, CD96 analyte
Protocol: as §1

[3] = target: T3, cy-CD96 (soluble, extracellular domain); experiment: SPR 25C, IgG on Protein A, CD96 analyte
Protocol: as §1

| Binder | binding result (huCD96D1-Fc) | Kd [1] | Kd [2] | binding result [1] | Kd [3] | apparent Kd (pooled screen) [2] |
| --- | --- | --- | --- | --- | --- | --- |
| mAb1.v7 IgG (humanized 12F8) (antibody, V domains shown, human IgG1 N297G) VH: EVQLVQSGAEVKKPGASVKVSCKASGFTFTNNWMHWVRQAPGQGLEWIGMIHPNSGITNINEKFKNRVTMTTDTSTSTAYMELRSLRSEDTAVYYCRSDGTYEGYFDYWGQGTLVTVSS VL: DIQLTQSPSSLSASVGDRVTITCKASQNVGTAIVWYQQKPGKAPKVLIYSASTRYTGVPSRFSGSGSGTDFTLTISSLQPEDFATYYCQQYSSSPLTFGQGTKVEIKG | binds | ~386 nM | 4.49 nM | – | – | – |
| h10G1 IgG (humanized 10G1) (antibody, V domains shown, human IgG1 N297G) VH: EIQLVQSGSELKKPGASVKVSCKASGYPFTTYGMSWVRQAPGQGLEWMGWINTDSGVPTYADDFKGRFVFSLDTSVSTAYLQISSLKAEDTAVYFCARNIYYGWGNFDYWGQGTLVTVSS VL: EIVMTQSPDFQSVTPKEKVTITCRASQDIYRNLHWYQQKPDQTPKLLIKHASDSISGIPSRFSGSGSGTDFTLTINSLEAEDAAAYYCLQGYSMPYTFGGGTKVEIKG | binds | – | – | no binding (tested: 100 nM highest) | 0.74 nM | 1.17 nM |
